The Kd is the free concentration of one partner at which half of the binding sites on the other are occupied at equilibrium, for simple one-to-one binding. Read a high Kd as a looser complex.

The values that follow come from PMC3044768.

This test deals with authentic wild-type SARS-CoV 3C-like protease (3CLpro) (SARS-CoV) (UniProt P0C6X7). Briefly: ITC.

Consider “authentic wild-type SARS-CoV 3C-like protease (3CLpro) (from UniProt P0C6X7 3241-3546) (enzyme)”, for which the Kd is 21.4 µM.
